# The RNAGym collection of RNA variant scans (doi:10.7554/elife.80360)
# B1: CPEB3 Ribozyme (parent)
# chain: GGGGGCCACAGCAGAAGCGUUCACGUCGCGGCCCCUGUCAGAUUCUGGUGAAUCUGCGAAUUCUGCUGU
# Variants of: B1
# Test: self-cleavage, relative activity (ratio to wild type); higher = more cleavage; co-transcriptional
row,Variant,self-cleavage
1,A10C A60C,0.28
2,A10C A60G,0.853
3,A10C A60U,0.484
4,A10C C12A,0.439
5,A10C C12G,0.659
6,A10C C12U,0.882
7,A10C C18G,0.196
8,A10C C22G,0.141
9,A10C C22U,0.351
10,A10C C24A,0.738
11,A10C C24U,0.891
12,A10C C27A,0.666
13,A10C C27U,0.508
14,A10C C29A,0.596
15,A10C C29G,0.165
16,A10C C32A,0.908
17,A10C C32U,1.04
18,A10C C33A,0.965
19,A10C C33G,0.988
20,A10C C34A,0.981
21,A10C C34U,0.986
22,A10C C35A,0.325
23,A10C C35G,0.631
24,A10C C35U,0.992

row,Variant,self-cleavage
1,A10C C39A,0.861
2,A10C C39G,0.987
3,A10C C45A,0.97
4,A10C C45U,1
5,A10C C57A,0.351
6,A10C C57G,0.292
7,A10C C57U,0.275
8,A10C C63A,0.676
9,A10C C63U,1.02
10,A10C G11A,0.887
11,A10C G11U,0.913
12,A10C G14A,0.363
13,A10C G14U,0.411
14,A10C G17A,0.48
15,A10C G17C,0.0999
16,A10C G19A,0.162
17,A10C G25A,0.212
18,A10C G25C,0.103
19,A10C G28A,0.125
20,A10C G28U,0.12
21,A10C G30A,0.994
22,A10C G30C,0.923
23,A10C G30U,0.753
24,A10C G31A,0.968

row,Variant,self-cleavage
1,A10C G31U,0.913
2,A10C G37C,0.23
3,A10C G37U,0.244
4,A10C G47A,1.04
5,A10C G47U,1.01
6,A10C G48A,1.02
7,A10C G50A,0.971
8,A10C G56C,0.772
9,A10C G58C,0.965
10,A10C G58U,0.999
11,A10C G65A,0.798
12,A10C G65C,0.637
13,A10C G65U,0.655
14,A10C G68A,1.03
15,A10C G68C,1.04
16,A10C G68U,1.03
17,A10C U20A,0.205
18,A10C U20C,0.286
19,A10C U20G,0.0821
20,A10C U21A,0.959
21,A10C U26A,0.943
22,A10C U26C,1.02
23,A10C U26G,0.885
24,A10C U38C,1

row,Variant,self-cleavage
1,A10C U44A,0.959
2,A10C U44C,0.92
3,A10C U46A,1.03
4,A10C U46G,0.953
5,A10C U49A,1.02
6,A10C U49C,1.04
7,A10C U53A,0.976
8,A10C U53C,0.863
9,A10C U55A,0.824
10,A10C U55C,0.911
11,A10C U61A,0.937
12,A10C U61C,0.763
13,A10C U61G,0.768
14,A10C U62C,0.72
15,A10C U62G,0.772
16,A10C U64G,0.804
17,A10C U67C,1.01
18,A10C U67G,1.03
19,A10C U69A,1.06
20,A10C U69C,1.05
21,A10C U69G,1.05
22,A10G,0.94
23,A10G A13C,0.182
24,A10G A15C,0.254

row,Variant,self-cleavage
1,A10G A15G,0.786
2,A10G A15U,0.253
3,A10G A16C,0.145
4,A10G A16G,0.894
5,A10G A16U,0.452
6,A10G A23G,0.832
7,A10G A23U,0.748
8,A10G A40C,0.201
9,A10G A40G,0.728
10,A10G A42G,0.636
11,A10G A42U,0.78
12,A10G A51C,0.73
13,A10G A51G,0.857
14,A10G A51U,0.825
15,A10G A52C,0.776
16,A10G A52U,0.834
17,A10G A59C,0.517
18,A10G A59U,0.647
19,A10G A60G,0.656
20,A10G C22G,0.145
21,A10G C22U,0.23
22,A10G C24A,0.615
23,A10G C24G,0.297
24,A10G C24U,0.186

row,Variant,self-cleavage
1,A10G C27A,0.857
2,A10G C27G,0.199
3,A10G C29G,0.225
4,A10G C32G,0.762
5,A10G C33A,0.926
6,A10G C34A,0.89
7,A10G C34G,0.82
8,A10G C39A,0.42
9,A10G C39G,0.595
10,A10G C39U,0.633
11,A10G C45A,0.784
12,A10G C45U,0.901
13,A10G C54A,0.527
14,A10G C54G,0.404
15,A10G C54U,0.8
16,A10G C57A,0.322
17,A10G C57G,0.199
18,A10G C57U,0.284
19,A10G C63A,0.253
20,A10G C63G,0.338
21,A10G C63U,0.615
22,A10G C66G,0.35
23,A10G C66U,0.645
24,A10G G11A,0.143

row,Variant,self-cleavage
1,A10G G11C,0.79
2,A10G G11U,0.743
3,A10G G14A,0.195
4,A10G G14U,0.12
5,A10G G17A,0.132
6,A10G G17U,0.106
7,A10G G19A,0.157
8,A10G G19C,0.104
9,A10G G19U,0.162
10,A10G G25C,0.125
11,A10G G28A,0.254
12,A10G G28U,0.142
13,A10G G30C,0.94
14,A10G G31A,0.953
15,A10G G31U,0.868
16,A10G G37C,0.175
17,A10G G41U,0.466
18,A10G G47A,0.986
19,A10G G47C,0.927
20,A10G G48A,0.898
21,A10G G48C,0.968
22,A10G G48U,1
23,A10G G50C,0.818
